From paper PMC4930482

B1: RNF26, wild type (coIP of Figures 5A and 5B) [not stated] / TOLLIP (endogenous) [human (endogenous in a human melanoma cell line and in HEK293T)] (parent)
chain 1: MEAVYLVVNGLGLVLDVLTLVLDLNFLLVSSLLASLAWLLAFVYNLPHTVLTSLLHLGRGVLLSLLALIEAVVRFTCGGLQALCTLLYSCCSGLESLKLLGHLASHGALRSREILHRGVLNVVSSGHALLRQACDICAIAMSLVAYVINSLVNICLIGTQNLFSLVLALWDAVTGPLWRMTDVVAAFLAHISSSAVAMAILLWTPCQLALELLASAARLLASFVLVNLTGLVLLACVLAVTVTVLHPDFTLRLATQALSQLHARPSYHRLREDVMRLSRLALGSEAWRRVWSRSLQLASWPNRGGAPGAPQGDPMRVFSVRTRRQDTLPEAGRRSEAEEEEARTIRVTPVRGRERLNEEEPPGGQDPWKLLKEQEERKKCVICQDQSKTVLLLPCRHLCLCQACTEILMRHPVYHRNCPLCRRGILQTLNVYL
chain 2: not shown
B2: RNF26, wild type (coIP of Figures 5A and 5B) [not stated] / USP15 (endogenous) [human (endogenous in a human melanoma cell line and in HEK293T)] (parent)
chain 1: B1 chain 1
chain 2: MAEGGAADLDTQRSDIATLLKTSLRKGDTWYLVDSRWFKQWKKYVGFDSWDKYQMGDQNVYPGPIDNSGLLKDGDAQSLKEHLIDELDYILLPTEGWNKLVSWYTLMEGQEPIARKVVEQGMFVKHCKVEVYLTELKLCENGNMNNVVTRRFSKADTIDTIEKEIRKIFSIPDEKETRLWNKYMSNTFEPLNKPDSTIQDAGLYQGQVLVIEQKNEDGTWPRGPSTPKSPGASNFSTLPKISPSSLSNNYNNMNNRNVKNSNYCLPSYTAYKNYDYSEPGRNNEQPGLCGLSNLGNTCFMNSAIQCLSNTPPLTEYFLNDKYQEELNFDNPLGMRGEIAKSYAELIKQMWSGKFSYVTPRAFKTQVGRFAPQFSGYQQQDCQELLAFLLDGLHEDLNRIRKKPYIQLKDADGRPDKVVAEEAWENHLKRNDSIIVDIFHGLFKSTLVCPECAKISVTFDPFCYLTLPLPMKKERTLEVYLVRMDPLTKPMQYKVVVPKIGNILDLCTALSALSGIPADKMIVTDIYNHRFHRIFAMDENLSSIMERDDIYVFEININRTEDTEHVIIPVCLREKFRHSSYTHHTGSSLFGQPFLMAVPRNNTEDKLYNLLLLRMCRYVKISTETEETEGSLHCCKDQNINGNGPNGIHEEGSPSEMETDEPDDESSQDQELPSENENSQSEDSVGGDNDSENGLCTEDTCKGQLTGHKKRLFTFQFNNLGNTDINYIKDDTRHIRFDDRQLRLDERSFLALDWDPDLKKRYFDENAAEDFEKHESVEYKPPKKPFVKLKDCIELFTTKEKLGAEDPWYCPNCKEHQQATKKLDLWSLPPVLVVHLKRFSYSRYMRDKLDTLVDFPINDLDMSEFLINPNAGPCRYNLIAVSNHYGGMGGGHYTAFAKNKDDGKWYYFDDSSVSTASEDQIVSKAAYVLFYQRQDTFSGTGFFPLDRETKGASAATGIPLESDEDSNDNDNDIENENCMHTN
B3: RNF26, wild type (coIP of Figures 5A and 5B) [not stated] / EPS15 (endogenous) [human (endogenous in a human melanoma cell line and in HEK293T)] (parent)
chain 1: B1 chain 1
chain 2: MAAAAQLSLTQLSSGNPVYEKYYRQVDTGNTGRVLASDAAAFLKKSGLPDLILGKIWDLADTDGKGILNKQEFFVALRLVACAQNGLEVSLSSLNLAVPPPRFHDTSSPLLISGTSAAELPWAVKPEDKAKYDAIFDSLSPVNGFLSGDKVKPVLLNSKLPVDILGRVWELSDIDHDGMLDRDEFAVAMFLVYCALEKEPVPMSLPPALVPPSKRKTWVVSPAEKAKYDEIFLKTDKDMDGFVSGLEVREIFLKTGLPSTLLAHIWSLCDTKDCGKLSKDQFALAFHLISQKLIKGIDPPHVLTPEMIPPSDRASLQKNIIGSSPVADFSAIKELDTLNNEIVDLQREKNNVEQDLKEKEDTIKQRTSEVQDLQDEVQRENTNLQKLQAQKQQVQELLDELDEQKAQLEEQLKEVRKKCAEEAQLISSLKAELTSQESQISTYEEELAKAREELSRLQQETAELEESVESGKAQLEPLQQHLQDSQQEISSMQMKLMEMKDLENHNSQLNWCSSPHSILVNGATDYCSLSTSSSETANLNEHVEGQSNLESEPIHQESPARSSPELLPSGVTDENEVTTAVTEKVCSELDNNRHSKEEDPFNVDSSSLTGPVADTNLDFFQSDPFVGSDPFKDDPFGKIDPFGGDPFKGSDPFASDCFFRQSTDPFATSSTDPFSAANNSSITSVETLKHNDPFAPGGTVVAASDSATDPFASVFGNESFGGGFADFSTLSKVNNEDPFRSATSSSVSNVVITKNVFEETSVKSEDEPPALPPKIGTPTRPCPLPPGKRSINKLDSPDPFKLNDPFQPFPGNDSPKEKDPEIFCDPFTSATTTTNKEADPSNFANFSAYPSEEDMIEWAKRESEREEEQRLARLNQQEQEDLELAIALSKSEISEA

Variants of: B1
Experiment: coIP
Parameters: reference not given here
Conditions: with TOLLIP (endogenous) [human (endogenous in a human melanoma cell line and in HEK293T)]; HEK293T cells; n = 3; read off a plot

chain 1 I382R was tested. Which percent of parent did it give?
The percent of parent was 12 % Co-IP.

Variants of: B2
Experiment: coIP
Conditions: with USP15 (endogenous) [human (endogenous in a human melanoma cell line and in HEK293T)]; HEK293T cells; n = 3; read off a plot

Which percent of parent does the source give for chain 1 I382R here?
Its percent of parent is 27 % Co-IP.

Variants of: B3
Experiment: coIP
Conditions: with EPS15 (endogenous) [human (endogenous in a human melanoma cell line and in HEK293T)]; HEK293T cells; n = 3; read off a plot

How did the percent of parent turn out when chain 1 I382R was run?
The percent of parent was 22 % Co-IP.
